Patent US20090041770A1

Biological target: human FcRn fused to a His-tag and glutathione S transferase (FcRn-His-GST), complex of FcRn heavy chain with beta-2-microglobulin (human) (UniProt P55899)
Assay: AlphaScreen competition

Substance	FcRn Binding ratio Variant / WT
P238E (antibody)	3.71
T335F (antibody)	1.19
E269I (antibody)	1.26
H224Y (antibody)	1.68
E333M (antibody)	5.46
E269W (antibody)	1.19
L328N/I332E (antibody)	1.18
G236Y (antibody)	1.52
T223K (antibody)	2.97
V303Y (antibody)	1.15
T299Y (antibody)	3.85
S239D/D265H/N297D/I332E (antibody)	1.26
A330Y/I332E (antibody)	1.53
Y300N (antibody)	1.14
F241W/F243W/V262A/V264A (antibody)	1.91
A327H (antibody)	1.29
Y300Q (antibody)	1.11
S239E/V264I/A330Y/I332E (antibody)	2.36
A327M (antibody)	1.08
T225W (antibody)	6.89
F243L/V262I/V264W (antibody)	1.35
R255Y (antibody)	12.9
G236T (antibody)	1.56

Substance	FcRn Binding ratio Variant / WT
G281D (antibody)	1.33
L234H (antibody)	1.48
I336K (antibody)	12.1
S298F (antibody)	1.15
S239M (antibody)	1.03
L234V (antibody)	1.45
H268M (antibody)	1.88
I332D (antibody)	1.75
T335I (antibody)	1.41
E269M (antibody)	1.11
I332E (antibody)	1.32
K320N (antibody)	2.01
V282E (antibody)	1.91
P227G (antibody)	1.67
P238S (antibody)	1.12
P238I (antibody)	1.44
P291I (antibody)	1.15
S239D/K326T/I332E (antibody)	2.22
S239D/I332D (antibody)	1.12
S239T (antibody)	1.12
P238L (antibody)	1.71
S239E/V264I/I332E (antibody)	2.71

More lines, now with the values ahead:

FcRn Binding ratio Variant / WT	Substance
2.06	D249Q (antibody)
1.32	V264I (antibody)
1.44	L328E/I332E (antibody)
1.16	D265R (antibody)
1.44	V282K (antibody)
1.32	L328A (antibody)
1.56	P232K (antibody)
1.23	Y278R (antibody)
1.35	L328W (antibody)
1.18	N276D (antibody)
1.5	T335L (antibody)
2.08	E272Y (antibody)
1.16	T335H (antibody)
1.01	Y300K (antibody)
1.17	E318R (antibody)
1.09	Y300V (antibody)
1.37	F241L/V262I (antibody)
2.9	N286P (antibody)
1.46	P238H (antibody)
1.27	Y300E (antibody)
